Measured values published in publication PMC10696396, “HilE represses the activity of the Salmonella virulence regulator HilD via a mechanism distinct from that of intestinal long-chain fatty acids” (The Journal of Biological Chemistry, 2023).

Key:
[1] = target: EYFP-HilD (Salmonella enterica) (UniProt P0CL08); test: MST; HilE titrated against 50 nM EYFP-HilD; 25 °C, 0.05% Pluronic F-127, MST on-time 1.5 s
[2] = target: EYFP-HilD (Salmonella enterica) (UniProt P0CL08); test: MST; HilE titrated against EYFP-HilD preincubated with 1% DMSO; MST on-time 1.5 s, 25 °C
[3] = target: HilD (full-length, unfused) (Salmonella enterica) (UniProt P0CL08); test: SEC-MALS; Superdex 75 Increase 10/300 GL, 50 mM NaH2PO4 pH 7.0, 200 mM NaCl, 0.5 ml/min; protein concentrations of 100 μM (Fig. 4, D and E)

Substance HilE (natural protein) has a Kd [1] of 1.82 µM, a Kd [2] of 1.63 µM and a stoichiometry N [3] of 1.
